The source of these data is the supplement of paper PMC10724198.

± gives the standard deviation of the averaged measurements.

In the data set the test system is Saccharomyces cerevisiae. The data set is described as follows: protein stability index of tFT-peptide fusion (C-terminal peptide) (PSI (0-1 scale)); higher = more stable (slower turnover). Conditions: temperature: 30 C. Here is the method: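 MPS profiling in S. cerevisiae of the yeast C-terminome library: the last 12 aa of each annotated ORF are fused to the C-terminus of a sfGFP-mCherry timer, after a GGGS linker. Cells are FACS-sorted into 8 mCherry/sfGFP bins and deep-sequenced. PSI runs from 0 (unstable) to 1 (stable); wild type and das1Δ backgrounds, two technical replicates each.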

The mark [1] stands for this setting: genetic background: das1 deletion.

Consider “NASIFTVLSYCS [YEL020C-B C-terminal 12 aa]”, for which the protein stability index runs as follows: under setting [1], 0.6702 ± 0.0016; (genetic background: wild type) 0.668 ± 0.02.

Take NDDNFDDAQEQQ [SEC2 C-terminal 12 aa]: the protein stability index reads like this: under setting [1], 0.6977 ± 0.0015; (genetic background: wild type) 0.7002 ± 0.0057.

On to NDIFIPEQEHKQ [HPT1 C-terminal 12 aa], for which the protein stability index worked out at 0.721 ± 0.011 under setting [1] and 0.674 ± 0.029 (genetic background: wild type).

As for “NELSLRPATERI [YBL100W-A C-terminal 12 aa]”, the protein stability index under setting [1] turned out to be 0.6853 ± 0.0012 and the protein stability index (genetic background: wild type) came to 0.711 ± 0.015.

As for NEPEVQPEAAAN [PUS1 C-terminal 12 aa], the protein stability index by setting is: under setting [1], 0.679 ± 0.0086; (genetic background: wild type) 0.69 ± 0.011.

As to NESLNDYFTGIK [YBP1 C-terminal 12 aa], the protein stability index was determined as 0.706 ± 0.0084 under setting [1] and 0.772 ± 0.16 (genetic background: wild type).

Regarding NFAMLGLGPNWE [YUH1 C-terminal 12 aa], the protein stability index is, setting by setting: under setting [1], 0.722 ± 0.0065; (genetic background: wild type) 0.725 ± 0.057.

Take “NFWNTGSAIFMQ [YHR069C-A C-terminal 12 aa]”: the protein stability index was 0.7347 ± 0.0017 under setting [1] and 0.719 ± 0.029 (genetic background: wild type).

Turning to NGMWQKPEPGVS [YIL067C C-terminal 12 aa], the protein stability index under setting [1] came out at 0.691 ± 0.012 and the protein stability index (genetic background: wild type) came to 0.706 ± 0.028.

For NGRYVDTDFDSM [LCB5 C-terminal 12 aa], the protein stability index runs as follows: under setting [1], 0.707 ± 0.02; (genetic background: wild type) 0.659 ± 0.013.

On to NGTMKRGGVKNK [HPC2 C-terminal 12 aa], for which the protein stability index runs as follows: under setting [1], 0.697 ± 0.02; (genetic background: wild type) 0.6239 ± 0.0045.

Take NHPSNDSGNEKN [HCM1 C-terminal 12 aa]: the protein stability index was 0.667 ± 0.025 under setting [1] and 0.656 ± 0.029 (genetic background: wild type).

NHSSSGNKHDEL [MPD1 C-terminal 12 aa]: the protein stability index amounted to 0.657 ± 0.0067 under setting [1] and 0.686 ± 0.035 (genetic background: wild type).

Turning to NIILNWIYPYQR [COX18 C-terminal 12 aa], the protein stability index is, setting by setting: under setting [1], 0.703 ± 0.033; (genetic background: wild type) 0.778 ± 0.076.

As for NILFVMKEGRIY [YJL213W C-terminal 12 aa], the protein stability index under setting [1] was found to be 0.681 ± 0.016 and the protein stability index (genetic background: wild type) was 0.711 ± 0.056.

In the case of NIREARYEQQLK [CTF4 C-terminal 12 aa], the protein stability index was determined as 0.733 ± 0.035 under setting [1] and 0.689 ± 0.03 (genetic background: wild type).

In turn, NIYNPMDEEENQ [TFB5 C-terminal 12 aa] returned a protein stability index under setting [1] of 0.718 ± 0.025 and a protein stability index (genetic background: wild type) of 0.683 ± 0.032.

NLEATNNKKPPL [DAD4 C-terminal 12 aa] gave a protein stability index under setting [1] of 0.6963 ± 0.0043 and a protein stability index (genetic background: wild type) of 0.6968 ± 0.00081.

On to NLMEMFTKRDRS [ROD1 C-terminal 12 aa], for which the protein stability index by setting is: under setting [1], 0.72 ± 0.022; (genetic background: wild type) 0.713 ± 0.033.

Sequence NLNQHVKTHASL [COM2 C-terminal 12 aa] gave a protein stability index under setting [1] of 0.6752 ± 0.0042 and a protein stability index (genetic background: wild type) of 0.681 ± 0.029.

In the case of NMRFFYRLYVKN [BMT6 C-terminal 12 aa], the protein stability index by setting is: under setting [1], 0.489 ± 0.015; (genetic background: wild type) 0.45 ± 0.0084.

Regarding NNFCALYNLSNP [RPN14 C-terminal 12 aa], the protein stability index worked out at 0.714 ± 0.022 under setting [1] and 0.6867 ± 0.0038 (genetic background: wild type).

Take NNTFLDVQAKSN [IMP1 C-terminal 12 aa]: the protein stability index runs as follows: under setting [1], 0.6944 ± 0.0068; (genetic background: wild type) 0.712 ± 0.026.

Take NRFGVLPDDVEE [ECM1 C-terminal 12 aa]: the protein stability index is 0.714 ± 0.024 under setting [1] and 0.704 ± 0.032 (genetic background: wild type).

For the sequence NSAAFLLMSLKS [STB3 C-terminal 12 aa], the protein stability index runs as follows: under setting [1], 0.674 ± 0.0086; (genetic background: wild type) 0.679 ± 0.011.

For the sequence NSAFSSASVTKP [YFR057W C-terminal 12 aa], the protein stability index is 0.711 ± 0.0094 under setting [1] and 0.682 ± 0.023 (genetic background: wild type).

As for NSALSSTSTLAI [RIB1 C-terminal 12 aa], the protein stability index runs as follows: under setting [1], 0.6419 ± 0.0051; (genetic background: wild type) 0.64 ± 0.04.

As for NSLTQKYGTNNV [AAD15 C-terminal 12 aa], the protein stability index was determined as 0.698 ± 0.016 under setting [1] and 0.697 ± 0.029 (genetic background: wild type).

With NSSGEFQLESLF [MRI1 C-terminal 12 aa], the protein stability index by setting is: under setting [1], 0.707 ± 0.023; (genetic background: wild type) 0.698 ± 0.051.

On to NSVDWIYSWGKN [MIC12 C-terminal 12 aa], for which the protein stability index reads like this: under setting [1], 0.716 ± 0.03; (genetic background: wild type) 0.74 ± 0.019.

NTAGQKPTEYHY [APA2 C-terminal 12 aa] showed a protein stability index under setting [1] of 0.7199 ± 0.0016 and a protein stability index (genetic background: wild type) of 0.702 ± 0.019.

On to NTEQAYSQPFRY [NVJ1 C-terminal 12 aa], for which the protein stability index turned out to be 0.702 ± 0.021 under setting [1] and 0.722 ± 0.016 (genetic background: wild type).

As to NTESSDKGAKIQ [SIN3 C-terminal 12 aa], the protein stability index runs as follows: under setting [1], 0.701 ± 0.035; (genetic background: wild type) 0.664 ± 0.012.

Consider NTGFDPHLEDGM [TBF1 C-terminal 12 aa], for which the protein stability index under setting [1] came to 0.708 ± 0.032 and the protein stability index (genetic background: wild type) turned out to be 0.691 ± 0.039.

For NTKHYNDTLLKQ [PHO11 C-terminal 12 aa], the protein stability index turned out to be 0.718 ± 0.0081 under setting [1] and 0.66 ± 0.0066 (genetic background: wild type).

On to NTTRYNASLVNQ [DIA3 C-terminal 12 aa], for which the protein stability index by setting is: under setting [1], 0.741 ± 0.031; (genetic background: wild type) 0.712 ± 0.044.

For the sequence NVIIQDKTKKTQ [MCD4 C-terminal 12 aa], the protein stability index amounted to 0.733 ± 0.028 under setting [1] and 0.671 ± 0.011 (genetic background: wild type).

As for NVKSSTQEKDSK [SGN1 C-terminal 12 aa], the protein stability index is 0.706 ± 0.014 under setting [1] and 0.721 ± 0.053 (genetic background: wild type).

In the case of NYEDLATTQAAS [BRN1 C-terminal 12 aa], the protein stability index runs as follows: under setting [1], 0.722 ± 0.011; (genetic background: wild type) 0.68 ± 0.013.

NYQKNEPVEFLE [MIN9 C-terminal 12 aa]: the protein stability index was 0.711 ± 0.0097 under setting [1] and 0.656 ± 0.026 (genetic background: wild type).

PDVLRKLSHQNV [PNS1 C-terminal 12 aa]: the protein stability index turned out to be 0.713 ± 0.0075 under setting [1] and 0.666 ± 0.025 (genetic background: wild type).

As for PENGSLFEFDDN [SNU66 C-terminal 12 aa], the protein stability index is, setting by setting: under setting [1], 0.6962 ± 0.005; (genetic background: wild type) 0.6836 ± 0.0039.

PFALPSNDKVFF [ATO2 C-terminal 12 aa]: the protein stability index was found to be 0.698 ± 0.027 under setting [1] and 0.731 ± 0.0052 (genetic background: wild type).

Regarding PFIFKTLEEQGL [CCP1 C-terminal 12 aa], the protein stability index was determined as 0.743 ± 0.06 under setting [1] and 0.691 ± 0.065 (genetic background: wild type).

Regarding PFLEKLTLSGLL [CDC45 C-terminal 12 aa], the protein stability index by setting is: under setting [1], 0.714 ± 0.0059; (genetic background: wild type) 0.694 ± 0.0088.

On to PFPQKHRDNHLV [YOR053W C-terminal 12 aa], for which the protein stability index by setting is: under setting [1], 0.701 ± 0.025; (genetic background: wild type) 0.711 ± 0.012.

For PGPISFLPVIPI [YLR402W C-terminal 12 aa], the protein stability index is, setting by setting: under setting [1], 0.7092 ± 0.0061; (genetic background: wild type) 0.744 ± 0.12.

In the case of PHEAALPKPSFV [EDC2 C-terminal 12 aa], the protein stability index turned out to be 0.7069 ± 0.0042 under setting [1] and 0.719 ± 0.038 (genetic background: wild type).

Regarding PHSQNEILQYYL [NAT1 C-terminal 12 aa], the protein stability index amounted to 0.705 ± 0.0095 under setting [1] and 0.722 ± 0.065 (genetic background: wild type).

With PHYKPRDGSQVE [SPT4 C-terminal 12 aa], the protein stability index reads like this: under setting [1], 0.69 ± 0.011; (genetic background: wild type) 0.65 ± 0.0097.
